Test results reported in the nanobody polyreactivity screen of Harvey et al. (2022).

Assay: yeast display, Sf9 membrane polyspecificity reagent, FACS + sequencing; frameworks hold sequencing errors
Procedure, shortened: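 Nanobodies came from a synthetic yeast display library in Saccharomyces cerevisiae BJ5465, induced with galactose for 36–48 hours and stained for 1 hour at 4 °C with 10% biotinylated, detergent-solubilized Sf9 membrane reagent. Cells were enriched on streptavidin microbeads and then FACS-sorted, with low and high (top ~1%) gates set on anti-HA fluorescence for expression and streptavidin fluorescence for reagent binding. Each polyreactivity label reflects the gate a clone came from. Genes were amplified by colony PCR, sequenced by MiSeq 2 × 250 and filtered by CDR length.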

With “QVQLVESGGGLVQAGGSLRLSCAASGSTFWKYVMGWYRQAPGKERELVAAIDTGASTNYADSVKGRFTISRDNAKYTVYLQMNSLKPEDTAVYFCNAELWYGPDELTGDYWGQGTQVTVSS” as the sequence, how does the “polyreactivity (PSR sort gate)” value read?
The value was “low polyreactivity”.

Which “polyreactivity (PSR sort gate)” value does the source give for “QVQLVESGGGLVQAGGSLRLSCAASGSTFWLYAMGWYRQAPGKERELVAAIRSGDRTNYADSVKGRFTISRDNAKNTVYLQMNSLKPEDTAVYYCAAVAYLNWTPHYYWGQGTQVTVSS” here?
Its value is “low polyreactivity”.

With “QVQLVESGGGLVQAGGSLRLSCAASGSTFWPYAMGWYRQAPGKERELVAAISSSGGSTYYADSVKGRFTISRDNAKNTVYLQMNSLKPEDTAVYYCNKDYHRPYGGGSKGDYWGQGTLVTVSS” as the sequence, how does the “polyreactivity (PSR sort gate)” value read?
The value was “low polyreactivity”.

For “QVQLVESGGGLVQAGGSLRLSCAASGSTFWPYAMGWYRQAPGKERELVARINSGGNTNYADSVKGRFTISRDNAKNTVYLQMNSLKPEDTAVYYCAVRSLYEPRVYYRWVVGDGNYWGQGTQLTVSS”, which “polyreactivity (PSR sort gate)” value is on record?
The value was “low polyreactivity”.

Which “polyreactivity (PSR sort gate)” value does the source give for “QVQLVESGGGLVQAGGSLRLSCAASGSTFWPYAMGWYRQAPGKEREMVAAITWRGGRTYYADTVKGRFTISRDNAQNTVYLQMNSLKPEDTAVSYCNTGPWSRSWSQKYEYWGQGTQVTVSS” here?
Its value is “high polyreactivity”.

For “QVQLVESGGGLVQAGGSLRLSCAASGSTFWPYTMGWYSQAPGKERELVAAISLSGGSTYYADSVKGRFTISRDIAKNTVYLQMNSLKPEDTAVYYCAAEGGYQNWHYLYDYWGQGTQVTVSS”, which “polyreactivity (PSR sort gate)” value is on record?
The value was “low polyreactivity”.

Which “polyreactivity (PSR sort gate)” value does the source give for “QVQLVESGGGLVQAGGSLRLSCAASGSTFWSYTMGWYRPAPGKERELVARIRTTGGSTYADSVKGRFTISRDNAKNTVYLQMNSLKPEDTAVYDCAKEGWLRYYPWYGGDYWGQGTLVTVSS” here?
Its value is “high polyreactivity”.

For “QVQLVESGGGLVQAGGSLRLSCAASGSTFWTNAMGWYRQAPGKERELVAGITDTDNHELRRLCEGRFTISRDNAKNTVYVQMNSLKPEDTAVYYCNADDTYYPLGGITGYDYWGQGTQVTVSS”, which “polyreactivity (PSR sort gate)” value is on record?
Its value is “low polyreactivity”.

Which “polyreactivity (PSR sort gate)” value does the source give for “QVQLVESGGGLVQAGGSLRLSCAASGSTFWVYTMGWYRQAPGKEREFVAAISSGVGSTHYADSVKGRFTLSRDNAKNTVYLNMNSLKPEDTAVYYCAAESYYVYLGWLEYWGQGTQVTVSS” here?
The value was “high polyreactivity”.

Which “polyreactivity (PSR sort gate)” value does the source give for “QVQLVESGGGLVQAGGSLRLSCAASGSTFWWYAMGWYRQAPGKERELVATISWSTGSTYYADSVKGRFTISRDNAKNTVYLQMNSLKPEDTAVYYCNARIFYLFPGNSWSSSDYDYWGQGTQVTVSS” here?
The value was “low polyreactivity”.

With “QVQLVESGGGLVQAGGSLRLSCAASGSTFWYNAMGWYRPAPGKERELVAAITWSGGSTYYADSVKGRFTISRDNAKNTVYLQMNSLKPEDTAVYYCAADHSAYSVFSGYKYGYWGQGTQVTVSS” as the sequence, how does the “polyreactivity (PSR sort gate)” value read?
The value was “low polyreactivity”.

With “QVQLVESGGGLVQAGGSLRLSCAASGSTFWYNGMGWYRQAPGKERELVAAINWSGDSTYYADSVKGRFTISRDNAKNTVYLQMNSLKPEDTAVFYCAGGYYTYSRRSSFFVAYGYWGLGTQVTVSS” as the sequence, how does the “polyreactivity (PSR sort gate)” value read?
Its value is “low polyreactivity”.

For “QVQLVESGGGLVQAGGSLRLSCAASGSTFWYSDMGWYRQARGKDRELVAAISGSGGRTYYADSVKGRFTISRDNAKNTVYIQMNSLKPEDTAVYYCAADDYWSADFKYNYWGQGTQVTVSS”, which “polyreactivity (PSR sort gate)” value is on record?
Its value is “low polyreactivity”.

For “QVQLVESGGGLVQAGGSLRLSCAASGSTFWYYAMGWYRQAPGKERELVAAITSSGSTYYADSVKGRFTISRDNAKNTVYLQMNRLKPEDTAVYYCAAEQWYCYGSYDYWGQVTQVTVSS”, which “polyreactivity (PSR sort gate)” value is on record?
Its value is “high polyreactivity”.

With “QVQLVESGGGLVQAGGSLRLSCAASGSTFWYYAMGWYRQAPGKERELVAAITTGGDTTNYADSVKGRFTISRDNAKNNVYLQMNSLKPADTAVYYCARDTGYDLIVLPDDSWGQGTQVTVSS” as the sequence, how does the “polyreactivity (PSR sort gate)” value read?
Its value is “low polyreactivity”.

For “QVQLVESGGGLVQAGGSLRLSCAASGSTFYANAMGWYRQAPGKERELVAAISWRGGSTYYADSVKGRFTISRDNAKNTVYLQMNSLKPEDTAVYYCNRVQRYIRHGDYWGQGTQVTVSS”, which “polyreactivity (PSR sort gate)” value is on record?
The value was “high polyreactivity”.

With “QVQLVESGGGLVQAGGSLRLSCAASGSTFYAYAMGWYRQAPGKERELVAAIDSGGSTYYADSVKGRFTISRDNAKNTVYLQMNSLKPEDTAVYYCAVRHRYTRAYWGRVYWGQGTQVTVSS” as the sequence, how does the “polyreactivity (PSR sort gate)” value read?
The value was “low polyreactivity”.

With “QVQLVESGGGLVQAGGSLRLSCAASGSTFYAYDMGWYRQAPGKEREWVAAISRSGGNTYYADSVKGRFTISRDYAKNTVYLQMNSQKPEDTAVYYCNARSSVYGHRKGSARIPRYDYWGQGTQVTVSS” as the sequence, how does the “polyreactivity (PSR sort gate)” value read?
The value was “high polyreactivity”.

Which “polyreactivity (PSR sort gate)” value does the source give for “QVQLVESGGGLVQAGGSLRLSCAASGSTFYDYAMGWYRQAPGKERELVASIDSGDSTNYADSVKGRFTISRDNAKNTVYLQMNSLKPEDTAVYYCAADYQNTGARYWYYYWGQGTQVTVSS” here?
The value was “low polyreactivity”.

For “QVQLVESGGGLVQAGGSLRLSCAASGSTFYFNAMGGYRQSPGKERELVAVIDGSGGFTYYADSVKGRFTISRDNAKNTVYLQMNSLKQEVTAVYDCNADLVYNTFLYSGGDEYDYWGQGTQVTVSS”, which “polyreactivity (PSR sort gate)” value is on record?
The value was “high polyreactivity”.

For “QVQLVESGGGLVQAGGSLRLSCAASGSTFYFNAMGWSRQAPGKERELVAGISSGGSTYYADSVKGRFTISRDNAKNTVYLQMNSLKPEDTAVYYCAATWLVERPVSYTEYGYWGQGTQVTVSS”, which “polyreactivity (PSR sort gate)” value is on record?
Its value is “low polyreactivity”.

Which “polyreactivity (PSR sort gate)” value does the source give for “QVQLVESGGGLVQAGGSLRLSCAASGSTFYFNAMGWYRQAPGKERELVAGIRYSGSSTYYADSVKGRFTISRDNAKNTVYLQMNSLKPEDTAVYYCAARYSVYPRVSKYSYRFNYWGQGNQVTVSS” here?
Its value is “high polyreactivity”.

For “QVQLVESGGGLVQAGGSLRLSCAASGSTFYFNAMGWYRQAPGKERELVAGIYSGGSTYYADSVKGRFTISRDNAKNTVYLQMNSLKTEDTAVYYCAATWLVERPFSYTEYGYWGQGTQVTVSS”, which “polyreactivity (PSR sort gate)” value is on record?
Its value is “low polyreactivity”.

Which “polyreactivity (PSR sort gate)” value does the source give for “QVQLVESGGGLVQAGGSLRLSCAASGSTFYFNAMGWYRQAPGKERELVAVIDGSGGFTYDADSVKGRFTISRDNAKNTVYLQMNSLKPEDTAVYYCNADLVYNTFIYSGGDEYDYWGQGTQGTVSS” here?
Its value is “high polyreactivity”.

Which “polyreactivity (PSR sort gate)” value does the source give for “QVQLVESGGGLVQAGGSLRLSCAASGSTFYFNSMGWYRQAPGKERELVAAITSGARTKYADSVKGRFTMSRDNAKITVYLQMNSLKPEDTAVYYCSASGLYYYRYRYYYWGQGTQVTVSS” here?
Its value is “high polyreactivity”.

With “QVQLVESGGGLVQAGGSLRLSCAASGSTFYFYAMGGYRQAPGKERELVAVISSGGRTYYADSVKGRFTISRDNAKNTVYLQMNSLKPEDTAVYYCAASWPSSLTYYYWGQGTQVTVSS” as the sequence, how does the “polyreactivity (PSR sort gate)” value read?
The value was “low polyreactivity”.

Which “polyreactivity (PSR sort gate)” value does the source give for “QVQLVESGGGLVQAGGSLRLSCAASGSTFYFYAMGWYRQAPGKEREFVAAITASGGSTYYADSVKGRFTISRDNAKNTVYLQMNSLKPEDTAVYYCAARFSYWKTKRAYDWGQGTQVTVSS” here?
Its value is “high polyreactivity”.

Which “polyreactivity (PSR sort gate)” value does the source give for “QVQLVESGGGLVQAGGSLRLSCAASGSTFYFYAMGWYRQAPGKERELVATITTRGGSTYYADSVKGRFTISRDHAKNTLDLQMNILKPEDTAVYYCAREAWYKSYSRIKFGYWGQGTQVTVSS” here?
The value was “high polyreactivity”.

Which “polyreactivity (PSR sort gate)” value does the source give for “QVQLVESGGGLVQAGGSLRLSCAASGSTFYFYVMGWYRQAPGKERELVARISWSGGSTYYADSVKGRFTISRDNAKNTVYLQMNSLKPEDTAVYYCARQYKYPSSGEYDSWGQGTQVTVSS” here?
Its value is “low polyreactivity”.

With “QVQLVESGGGLVQAGGSLRLSCAASGSTFYGKAMGWYRQAPGKRELLAAITWSGGSTYYADSVKGRFTISRDNAKNTVYLQMNSLKPEDTAVYYCAARNPKSGYNYWGQGTQVTVSS” as the sequence, how does the “polyreactivity (PSR sort gate)” value read?
Its value is “low polyreactivity”.
